{
  "source": "patent US20230398116A1",
  "about": "“Agent for reversing resistance to anticancer drugs” (Y'S AC CO., LTD., priority 2020, published 2023)",
  "molecules": {"B1": {"name": "IL-26: recombinant human IL-26 dimers for cell stimulation, R&D Systems (protein)", "chain": "KHKQSSFTKSCYPRGTLSQAVDALYIKAAWLKATIPEDRIKNIRLLKKKTKKQFMKNCQFQEQLLSFFMEDVFGQLQLQGCKKIRFVEDFHSLRQKLSHCISCASSAREMKSITRMKRIFYRIGNKGIYKAISELDILLSWIKKLLESSQ"}},
  "key": {"[1]": {"tested_on": "endoplasmic reticulum stress signaling (DDIT3, ATF3, ATF4) in HCC70 cells", "experiment": "qRT-PCR and immunofluorescence of endoplasmic reticulum stress markers in HCC70 cells", "format": "cell-based, human", "details": "HCC70, IL-26 30 ng/ml, gefitinib 40 μM", "experimental": "(§1) E0771 and HCC70 cells (1×10^5) were cultured for 24 hours in RPMI1640 medium with 10% FCS on Lab-Tek chamber slides (Thermo Fisher Scientific). The cultured cells were stimulated with Alexa Fluor 488 labeled IL-26 (30 ng/ml) in the presence or absence of recombinant human and mouse EphA3-Ig for 1 hour. HCC70 cells were stimulated with IL-26 (30 ng/ml) in the presence or absence of gefitinib (40 μM), a signal inhibitor, and a neutralizing antibody for 24 hours. Subcutaneous tumor samples obtained from mice were fixed in 4% paraformaldehyde (Thermo Fisher Scientific) and embedded in OCT compound (Tissue-Tek (registered trademark), Sakura Finetek, Japan). Cells and slides were immunostained with each antibody and observed using a Zeiss inverted microscope and Axiovision 2.0 program (Carl Zeiss, Germany). The fluorescence intensity was quantified with Image-J software (NIH). The images were captured using a 100×400× objective.\n(§2) E0771 cells, HCC70 cells, and MDA-MB-468 cells were cultured in RPMI1640 medium containing 10% FCS on a 6-well plate (Corning), and then stimulated with IL-26 (30 ng/ml) in the presence or absence of gefitinib for 3, 6, or 12 hours. The cells were harvested and total RNA was extracted. cDNA was synthesized using PrimeScript II first-strand cDNA synthesis kit (TaKaRa Bio, Japan) and oligo (dT) primers. The mRNA levels were measured by 7500 System SDS software (Applied Biosystems, Foster City, CA) and normalized to hypoxanthine phosphoribosyltransferase expression levels."}, "[2]": {"target": "T1, EphA3/IL-26 interaction (Homo sapiens, UniProt Q9NPH9)", "T1 construct": "purchased R&D Systems; host or cells: IL-26 was purchased; EphA3 is endogenous on E0771 cells", "T1 sequence (Q9NPH9 22-171)": "B1 chain", "experiment": "Immunofluorescence of rhIL-26-Alexa 488 and cell surface EphA3 on E0771 cells", "format": "cell-based, mouse", "details": "E0771, FIGS. 17 and 18"}, "[3]": {"tested_on": "HCC70 cells", "experiment": "JC-1 staining (mitochondrial membrane potential) of HCC70 cells", "format": "cell-based, human", "details": "HCC70, IL-26 30 ng/ml, gefitinib 40 μM, 24 hours, FIG. 31", "experimental": "Mitochondrial stability was evaluated using the mitochondrial membrane potential (ΔΨm) assay kit (Cayman Chemical, Ann Arbor, MI, USA) utilizing JC-1 staining. HCC70 cells (1×10^4 cells) were stimulated with IL-26 (30 ng/ml) in the presence or absence of gefitinib (40 μM), a signal inhibitor, and a neutralizing antibody in 96-well flat bottom plate (Corning) for 24 hours. […] Stained cells were quantified using Image-J software (NIH). Images were captured using a 40× objective."}, "[4]": {"tested_on": "E0771 cells", "experiment": "MTT assay / cell proliferation (confluence) assay, E0771", "format": "cell-based, mouse", "experimental": "(§3) Human and mouse breast cancer cells (1×10^4) were cultured in 10% FCS containing RPMI1640 medium on a 96-well flat bottom plate (Corning, Tewksbury, MA) at 37° C. for 24 hours, and then stimulated with IL-26 for 48 hours in the presence or absence of EGFR-TKI (gefitinib or erlotinib) at various concentrations, a signal inhibitor, and a neutralizing antibody. HUVECs were seeded in a 96-well flat bottom plate at 5×10^3 cells/well in a 2% FBS-containing EGM medium in which growth factors were reduced by half, and cultured at 37° C. for 12 hours. Thereafter, the medium was aspirated, and a recombinant human IL-26 dimer was adjusted to a final concentration of 10 ng/mL in a 2% FBS-containing EGM medium containing no growth factors, and added to the cells. The stimulation was started in the presence or absence of control human IgG and anti-human IL-26 antibodies, and the cells were cultured for 48 hours. Thereafter, a concentration of 20 μl or 1/10 of a 5 mg/ml MTT solution (Tetrazolium monosodium salt, WST-8) was added to each well, and the plate was allowed to stand for 1 hour. The absorbance at 450 nm/595 nm was measured using Microplate Reader (Bio-Rad, Hercules, CA) and data was analyzed with Microplate Manager 6 software (Bio-Rad).\n(§4) Human and mouse breast cancer cells (1×10^4) were cultured in RPMI1640 medium containing 10% FCS for 24 hours at 37° C. on a 96-well flat bottom plate (Corning), and then stimulated with IL-26 (30 ng/ml) in the presence or absence of various concentrations of gefitinib and a neutralizing antibody. Cell proliferation was measured as cell confluence using IncuCyte ZOOM (Essen Bioscience, Ann Arbor, MI)."}, "[5]": {"tested_on": "endoplasmic reticulum stress signaling in E0771 cells", "experiment": "qRT-PCR of endoplasmic reticulum stress markers in E0771 cells", "format": "cell-based, mouse", "details": "E0771, IL-26 30 ng/ml, gefitinib 20 μM, 6 hours", "experimental": "as §2"}, "[6]": {"tested_on": "MDA-MB468 cells", "experiment": "MTT assay / cell proliferation (confluence) assay, MDA-MB468", "format": "cell-based, human", "experimental": "as §3, §4"}, "[7]": {"tested_on": "endoplasmic reticulum stress signaling in MDA-MB-468 cells", "experiment": "qRT-PCR of endoplasmic reticulum stress markers in MDA-MB-468 cells", "format": "cell-based, human", "details": "MDA-MB-468, IL-26 30 ng/ml, gefitinib 20 μM, 6 hours", "experimental": "as §2"}, "[8]": {"target": "T2, interaction between IL-26 and EphA3 (Homo sapiens, UniProt Q9NPH9)", "T2 construct": "purchased R&D Systems; host or cells: IL-26 was purchased; EphA3 is endogenous on HCC70 cells", "T2 sequence (Q9NPH9 22-171)": "B1 chain", "experiment": "Immunofluorescence of rhIL-26-Alexa488 and cell surface EphA3 on HCC70 cells", "format": "cell-based", "details": "HCC70, FIG. 21", "experimental": "as §1"}, "[9]": {"tested_on": "HCC70 cells", "experiment": "MTT assay / cell proliferation (confluence) assay, HCC70", "format": "cell-based, human", "details": "48 hours", "in_short": "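Breast cancer cells (1×10^4/well) were grown 24 h at 37 °C in RPMI1640/10% FCS, then stimulated with IL-26 for 48 h ± gefitinib or erlotinib at various concentrations, with WST-8 read at 450/595 nm after 1 h. In the confluence format, cells got IL-26 (30 ng/ml) ± gefitinib, with proliferation imaged as cell confluence.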"}, "[10]": {"tested_on": "T47D cells", "experiment": "MTT assay / cell proliferation (confluence) assay, T47D", "format": "cell-based, human", "details": "48 hours", "experimental": "as §3, with “The stimulation was started in the presence or absence of control human IgG and anti-human IL-26 antibodies, and the cells were cultured for 48 hours. Thereafter, a concentration of 20 μl or 1/10 of a 5 mg/ml MTT solution (Tetrazolium monosodium salt, WST-8) was added to each well, and the plate was allowed to stand for 1 hour.” left out\nas §4"}},
  "note": "Entries after “also recorded” stand apart in the source; their conditions may differ.",
  "data": [
    {"molecule": "B1", "values": [
      {"measurement": "mRNA expression levels of IL-6, IL-8 and CXCL2, IL-26 with gefitinib", "setting": "[1]; 6 hours, FIG. 34", "value": "significantly reduced"},
      {"measurement": "expression of DDIT3 at the protein level, IL-26 with gefitinib", "setting": "[1]; 24 hours, FIG. 30", "value": "significant decrease"},
      {"measurement": "mRNA expression levels of DDIT3, ATF3 and ATF4, IL-26 with gefitinib", "setting": "[1]; FIG. 28", "value": "clearly reduced"},
      {"measurement": "colocalization of exogenous IL-26 with cell surface EphA3", "setting": "[2]", "value": "colocalized with the cell surface EphA3"},
      {"measurement": "mitochondrial activity, IL-26 with gefitinib", "setting": "[3]", "value": "significantly inhibited the reduction in mitochondrial activity"},
      {"measurement": "effect of exogenous IL-26 on inhibitory effect of erlotinib", "setting": "[4]; E0771, IL-26 30 ng/ml, erlotinib 30 μM or 50 μM, 48 hours, MTT", "value": "inhibited the inhibitory effect of erlotinib on cell proliferation"},
      {"measurement": "effect of exogenous IL-26 on gefitinib-induced suppression of cell proliferation", "setting": "[4]; E0771, IL-26 with gefitinib, 48 hours", "value": "significantly inhibited the cell proliferation suppression induced by gefitinib; also recorded: significantly suppressed in a dose-dependent manner"},
      {"measurement": "cell proliferation, IL-26 treatment alone", "setting": "[4]; E0771, no gefitinib", "value": "did not affect cell proliferation"},
      {"measurement": "mRNA expression levels of DDIT3, ATF3 and ATF4, IL-26 with gefitinib", "setting": "[5]", "value": "significantly decreased"},
      {"measurement": "mRNA expression levels of endoplasmic reticulum stress-related cytokines/chemokines, IL-26 with gefitinib", "setting": "[5]", "value": "significantly reduced"},
      {"measurement": "effect of exogenous IL-26 on suppression of cell proliferation by gefitinib", "setting": "[6]; MDA-MB468, 48 hours", "value": "inhibited"},
      {"measurement": "effect of exogenous IL-26 on inhibitory effect of erlotinib", "setting": "[6]; MDA-MB-468, IL-26 30 ng/ml, erlotinib 30 μM or 50 μM, 48 hours, MTT", "value": "inhibited the inhibitory effect of erlotinib on cell proliferation"},
      {"measurement": "mRNA expression levels of DDIT3, ATF3 and ATF4, IL-26 with gefitinib", "setting": "[7]", "value": "significantly decreased"},
      {"measurement": "mRNA expression levels of IL-6, IL-8 and CXCL2, IL-26 with gefitinib", "setting": "[7]", "value": "significantly reduced"},
      {"measurement": "colocalization of exogenous IL-26 with cell surface EphA3", "setting": "[8]", "value": "colocalized with the cell surface EphA3 of HCC70"},
      {"measurement": "effect of exogenous IL-26 on inhibitory effect of erlotinib", "setting": "[9]; HCC70, IL-26 30 ng/ml, erlotinib 30 μM or 50 μM, MTT", "value": "inhibited the inhibitory effect of erlotinib on cell proliferation"},
      {"measurement": "effect of exogenous IL-26 on gefitinib-induced suppression of cell proliferation", "setting": "[9]; HCC70, IL-26 with gefitinib", "value": "significantly inhibited the cell proliferation suppression induced by gefitinib"},
      {"measurement": "effect of exogenous IL-26 on suppression of cell proliferation by gefitinib", "setting": "[10]", "value": "inhibited"}
    ]}
  ]
}
